# Data: PMC4256270, “In Vivo Occupancy of Mitochondrial Single-Stranded DNA Binding Protein Supports the Strand Displacement Mode of DNA Replication”
# T1: mtSSB (mitochondrial single-stranded DNA-binding protein) (human, UniProt Q04837 17-148)
# T1 sequence: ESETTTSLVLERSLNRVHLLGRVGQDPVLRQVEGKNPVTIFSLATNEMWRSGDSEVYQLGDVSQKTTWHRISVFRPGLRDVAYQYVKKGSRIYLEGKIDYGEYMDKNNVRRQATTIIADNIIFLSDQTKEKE
# Molecular target: T1, mtSSB (mitochondrial single-stranded …)
# Assay: EMSA; 25 fmol DNA in 15 ul; no free template at tetramer:DNA 1:1 or higher; 10 mM Mg2+, 2 mM ATP; 20 mM Tris-HCl pH 8.0, 10 mM MgCl2, 100 ug/ml BSA, 1 mM DTT, 2 mM ATP, 10% glycerol, 15 min at room temperature; 10% native PAGE in 1x TBE
# Conditions: protein: recombinant; chain copies: 4; label: 5'-32P; single strand, unstructured
binder,measurement,value
AACACCAGCAGAACTTTTTTAACAAGCAACACACAGAAGACA (ssDNA) [6-dT (no predicted secondary structure; no stem)],binding result,binds
